{"source": "paper PMC2173300", "about": "(The Journal of Cell Biology, 2002)", "binders": {"B1": {"name": "GST–Bfa1p^1–394 (domain or fragment)", "chain": "MSIRPLTLNGLDEPETSFEELNTTLPRFQSHETLTLEENVPPLSTSTYIPPPSSVGTSDTGTVFSNSTSAFWSNKQADDDQDMEVDQDDEFLNDFQEFQNKKDDFDDAIKTNFHLRNGCRTGPFKNDIFAEEFDRKLSLEDKPRLKQPRSMMELKPKRKLSNSVTSRNLRSGNSVRFKKSMPNLALVNPAIREEEEDEEREREDQREFNYKIDNDTQDTILAKFSSDDEGDFLTGFEELEGEAIDETISSNDKESADHPRFLKKSSSSLPLKISPAQYDIVKHDELLTPGLHRRQRDWNTQQELDSFKEKRSVRHCSNQNVQLNGPAKIKTIKQQIDHNTPMKKGSMIYNPKTMKWEGNENVLSKFSDVDTANRKALLIKNKLQRDADSKKQKY"}, "B2": {"name": "6His–Tem1p (natural protein)", "chain": "MATPSTGANNSIPAVRNQVEVQVGLVGDAQVGKTSLMVKYVQNIYDKEYTQTLGVNFLKRKVSIRSTDIIFSIMDLGGQREFINMLPIATVGSSVIIFLFDLTRPETLSSIKEWYRQAYGLNDSAIPILVGTKYDLLIDLDPEYQEQISRTSMKYAQVMNAPLIFCSTAKSINIQKIFKIALAKIFNLTLTIPEINEIGDPLLIYKHLGGQQHRHHNKSQDRKSHNIRKPSSSPSSKAPSPGVNT"}}, "key": {"6His–Cdc14p": {"target": "T1, 6His–Cdc14p (budding yeast, UniProt Q00684 1-551)", "T1 sequence": "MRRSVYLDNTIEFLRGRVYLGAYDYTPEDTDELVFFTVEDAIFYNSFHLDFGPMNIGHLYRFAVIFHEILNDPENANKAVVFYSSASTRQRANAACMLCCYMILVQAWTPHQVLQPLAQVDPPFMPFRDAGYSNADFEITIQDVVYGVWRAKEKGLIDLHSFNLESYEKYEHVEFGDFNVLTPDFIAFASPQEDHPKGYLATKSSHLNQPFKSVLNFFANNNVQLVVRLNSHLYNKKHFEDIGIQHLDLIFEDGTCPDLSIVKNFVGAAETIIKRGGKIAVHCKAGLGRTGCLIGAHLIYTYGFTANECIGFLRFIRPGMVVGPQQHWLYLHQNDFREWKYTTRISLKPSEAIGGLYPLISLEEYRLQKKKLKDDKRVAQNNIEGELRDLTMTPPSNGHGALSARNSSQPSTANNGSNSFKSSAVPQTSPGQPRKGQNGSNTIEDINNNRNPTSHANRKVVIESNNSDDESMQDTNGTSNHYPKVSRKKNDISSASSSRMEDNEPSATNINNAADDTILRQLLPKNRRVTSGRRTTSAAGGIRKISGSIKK", "test": "pull-down"}, "GST–Cdc14p": {"target": "T2, GST–Cdc14p (budding yeast, UniProt Q00684 1-551)", "T2 sequence": "T1 sequence", "test": "pull-down"}}}
{"binder": "B1", "values": [{"measurement": "binding result", "setting": "6His–Cdc14p", "result": "binds"}]}
{"binder": "B2", "values": [{"measurement": "binding result", "setting": "GST–Cdc14p", "result": "binds"}]}
